The data set can be described thus: soluble on expression in E. coli; label from the status in PepcDB or PDB records.
On to “MSLRRSKATDHQAAGPSPGPRDAFRPASVDEDVPAAVGRLLDRFLAERVARAAALDPVFAHDIAERVARFTLDGGKRTRSQFVWWAHRACGGPAAGAEAALRVGAALELIQTCALVHDDVMDGSRLRRGRPALHTDVSAQYADAVLPAPGTRFGEAAAILAGDLALAWADDVVADTDLAPDPGRRVREVWSCLRMEMVAGQYLDIQGQATSSHSEARAMRAACLKSALYSVQRPLELGAALAGADTATTQALCSAGRCVGLAFQLRDDLHDVFEEPRRTGKPSGGDIRAGKPTYLVAVARARAEAAGDRGALAVLRRSLGCADLSDADLARVRDVLVTTGARDTVEAEIDRLVAQGLRHMGAASLAPEGRRHLDALLRSAAGAPSVRRQAPDASRSENGMPVSLLLTATAEGAPEKGIITITTDPNSSSVDKLAAALEHHHHHH”, for which the “soluble on expression in E. coli” value is “soluble”.

In the case of “MSLKVVITRPKERADVFASLLKKEGFEPIIFPTLEIVYNKDLDVNLDSYDWIAFTSPSGVIGLYNILTENERENVKNKKIAVIGEKTAKTFKKYFGRDPDIMPNEYTAESLLREIKKVSKEEEKFLIPTTPSTRDVLKNNLNADLLFVYKSAEPENLKEDIKKLKELIAKDKFILTFTSGLTAKNFFKYVDDEFAEIIKDNYIVAIGPITAKVIEKFGFKPLIPKVYTIEGMLEVIRTLKEREGHHHHHH”, the “soluble on expression in E. coli” value was “soluble”.

As to “MKLAVITDSTATLPTDLKQDKAIFSLDIPVIIDDETYFEGRNLSIDDFYQKMADSQNLPKTSQPSLSELDNLLGLLSSKGYTHVIGLFLAGGISGFWQNIQFLAEEHPEIEMAFPDSKITSAPLGSMVKNVLDWSRQGMTFQAILNKLQEQIDGTTAFIMVDDLNHLVKGGRLSNGSALLGNLLSIKPILRFDEEGKIVVYEKVRTEKKAMKRLVEILNDLIADGQYNVFIIHSKAQDKADYLKRLLQDSGYQYDIEEVHFGAVIATHLGEGAIAFGVTPRL”, the “soluble on expression in E. coli” value is listed as “not soluble”.

Regarding “MNINIVTIGKLKEKYLKQGIEEYTKRLSAYAKIDIIELPDEKAPENLSDQDMKIIKDKEGDRILSKISPDAHVIALAIEGKMKTSEELADTIDKLATYGKSKVTFVIGGSLGLSDTVMKRADEKLSFSKMTFPHQLMRLILVEQIYRAFRINRGEPYHKLEHHHHHH”, the “soluble on expression in E. coli” value is given as “soluble”.

Turning to “MQKEMEQDVKRFGQAAWATAIPRLEKLKLMLAQETLQLMRAKELCLNHKRAEIQGKMEDLPEQEKNINVVDELAIQFYEIQLELYEVKFEILKNKEILLTTQLDSLERLIKDEI”, the “soluble on expression in E. coli” value was “soluble”.

In the case of “MGSDKIHHHHHHMSQTLLALYGLKWNPFSADLPIAAVSVPPKVEDFCWRIEHALVREGGFALIQGDPGTGKSVILRLLAERLSRLPDLTVGAIHHPQSNLADFYRELGDIFAVSLKPSNRWGGFKALRERWLAHLEATRRRPVLLIDEAQEMNAPVLCELRLLSSARFDSQSLLSVLLAGDARLTEKLRREELVPLGSRIRVRLHTESASRNELLGCLEHLMTEAGNAGLMTAGLCQTLCDHAMGNYRVLTQMAAELLAAATQRQLDQLDEKLFLELYGPAQQPARRKAAH”, the “soluble on expression in E. coli” value is recorded as “not soluble”.

As to “MGSDKIHHHHHHKVEDLVQIATALEVDTIVLNDELSPSQLTNLEKETNLHFIDRTGLILEIFANRAHSREAKLQVELAKLQYQLPRLRTSSTQRLDQQTAGNTGGGFTNRGSGETKLELNRRTIRNKINHINKELKEMTTSSDIQRKQRDKKDIPSVALVGYTNTGKSTTMNGLVRMYGRNEDKQVFEKDMLFATLDTSVRKLTFPDQKELVLSDTVGFVSHLPHQLVKAFRSTLAEAAKADLLVQIVDISDPHYREMMQTTEDTLNEIGVTDIPMIYAFNKADLAGVSYPTLDGNELTYSAKQLQSLEMVTALIKKQVFKNYVEAKFLIPFNEGQVVDFLNGNADVKKTDYTEEGTEITAELKEKDYQRLARYVIQ”, the “soluble on expression in E. coli” value is reported as “not soluble”.

Consider “MGPAHKARDDGEGGWSMNSHPPLSVQTLNTLDRKAFTTALHFAFELSPWVVERAWDARPFASVETMHAAMMAVLDAASTADKLALIRAHPELAGKAAIAKQLTAESNAEQASAGLDKLTPDEFARFHALNAAYNTRFGFPFIICVRLNDKASILEAMAARLSNDEASEIAQAITQIGLISKLRLLDAVTHLEHHHHHH”, for which the “soluble on expression in E. coli” value is recorded as “not soluble”.

With “MTHLGGKVRSSGFLIPGSAPVSGTPPQGQGGLASSRVYEDSGGSLLSFSPMIHPNLAPLIAPSAYARLNLLNHCIFLEAFKEENSGQGLGGVQREVLFLKRDIIKQVIARIVAADSTLDLVNHGEPGREAPRRAQ”, the “soluble on expression in E. coli” value was “not soluble”.

Turning to “MGSDKIHHHHHHARRNVLRKTWMNPENSEIIKDGRMKALFLVGMTDGDDSRMRKVVMEEARIYGDMVVVDLKDTYEELPFKSLTTLLYGTSKASEFKLIGKIDEDIMFFPDKILPLLEQNLIDPSSESIYGMLFAEGGYVYRDKEHRWFVPDSTYGCDMFPPYTGGLFYLVTQDAAKKILNATKHRIFIPIEDALINGILANDCKIPRIHLPEIYGDHHSLTDEDTRGVLAWHTGKNDQQFLDYFYRKLSESRLKKKILDEKNKHLFY”, the “soluble on expression in E. coli” value is listed as “not soluble”.

Regarding “MATKEFYFAIIGHCDQPIFEMDFPVGEKKTKESEGTRHLNHYIGHAALDIVDEHALTTSQMYLKMVDKFNEWYVSAFVTASRIRFIMLHTHRADEGIKQFFQEMYETYIKHAMNPFYEIDDVIESPAFEQKATLYGRKYLS”, the “soluble on expression in E. coli” value is “not soluble”.

With “MTKLTIFYDGTCPLCAKEMKALRQHDHKQEINTVDIYSDAFSAYPQINPDRANTILHALDNQGNLLLGLDVTYRAWQLVGRGWLYAPLRWPLIRPVADWLYLRFAQNRYRISYWLTGTSRCNSGRCSRLEHHHHHH”, the “soluble on expression in E. coli” value was “soluble”.

“MSLAATPRKLSSKEVAALVGNLMEASESTSLENGLEVRPYAFGENELNQLGDYHALRIINERFCRTARDVFLPMLRLQPRISSFPPEVRSFDDYRSSQDNFVSITASRIEELRGNQMIVIPPPFISLLTDSYYGGQIRHVPTTRTEFTATEERCIELVTDRLNVALQVAWRDLMALTFTVVSREESMQFASFVDGEDMVVNCSFMVQLPNTEPASFDILYPLQTLKPISSQLRSRMQSDFVDDDRSWREKLERAILSIPLTLSARLCEPEVPLRQLMQMQPGDVLPVHLTEALSLLVEGQPIFEAAPGERGGQAALNLTRRHVRGEGHHHHHH”: the “soluble on expression in E. coli” value is listed as “soluble”.

As to “SEKEKGNDDGIPDQENSLDFSEHFNQLELLETHGHLIPTGTQSLWVGNSDEDEEQDDKNEEWYRLQEKKMEKDPSRLLLWAAEKNRLTTVRRLLSEKATHVNTRDEDEYTPLHRAAYSGHLDIVQELIAQGADVHAVTVDGWTPLHSACKWNNTRVASFLLQHDADINAQTKGLLTPLHLAAGNRDSKDTLELLLMNRYVKPGLKNNLEETAFDIARRTSIYHYLFEIVEGCTNSSPQS”, the “soluble on expression in E. coli” value is “soluble”.

As to “MNLDELLLLIEKNRSQLSKIDDDFYEKLRERIAELEEMKSSAGESDFFRYEDEIRTLKRLQRKIFELRTGKIISAAWAEVCGQQFSSDVENMCSDERVFFKKLIDIIKEFKRSILEGGKRKISDRVLVRIKKDVEIQGADGKTYKLRREDVVTLPQLNADALIKGGIAERIEVKEDEVSQEGLEHHHHHH”, the “soluble on expression in E. coli” value is reported as “soluble”.

As for “MAHHHHHHMEGQERRSVVEMTNTKTILLDPKDGWAPKAQFDFDASLWSIPPTHRIVHTFQDTKHKTYATQKDVYNLIAKDLVPHVFNGFNSCILTYGQTGSGKTYTMMGLYDPNASCGGDGEEGIIPRVSNDIFIILKERMEEEAKTRPPRDRTKFRVEVSFVEIYMERVRDLLDPALRHTRSNEHLQDARIRQDPYSGPFVEGVTKYEVENWTQCCTLLERGSQHRTTCATAVHNQSSRSHAIFQLTVVQEQVVPGNNKYALPAFKTQAGRINLVDLAGSERGGFQDYVKESAAINTSLLALRRVIDNLTERQNMLMEMAEAEITGKHYQERPLPQVPFRDSVLTWLLSDSIGGNARTTMVATLSPLVKNYADTLATLQWSSRARNLVTLVKMNDQALVHNGMASHAGALDNAVRIQRQNLDSLRQTLRSKQEAAQQLERQTKEHKKSLTKVRGRERAILRDRAALIIQRAFHRFLFYKKYEAYELHHAKLRGGNKRGTGDAADFQKIRKEAEAREQAAKEALKAEEALTDEKAAAVARYESNYEARALRRREAEERQARIVEVINGNELLRQYVEKRRQEVEALRSVADNENREREMAVKKLADMIKAIADHKTDQHKRKVEEDQKMLEMLRKKRDEVRSRRYEVLRQLQTLRERHKKVVKK”, the “soluble on expression in E. coli” value is “not soluble”.

For the origin of these results see the DeepSol protein solubility set.
